# According to US20010039258A1, “Active agent transport systems” (Emisphere Technologies, Inc., priority 1990, published 2001):
# Bridge positions count the residues as written; N and C are the ends. Ends that are not written are not given here.
# Legend:
# [1] = DSC of rhGh, effect of ionic strength; assay type: physicochemical; settings: pH 7.5
# [2] = DSC of rhGh, effect of GuHCl; assay type: physicochemical; settings: pH 7.5
# Protocol: (§1) Scanning calorimetry was performed using 5 mg 0.83 mM porcine insulin (MW 6,000) per mL in 50 mM phosphate buffer, pH 7.5. All thermograms were performed on a Microcal MC-2 scanning calorimeter equipped with the DA2 data acquisition system operated in the upscale mode at 1° C./min (up to 90° C.), and data points were collected at 20 second intervals. All scans were initiated at least 20 degrees below the observed transitions for the active agent. All thermograms were corrected for baseline subtraction and normalized for the concentration of macromolecule. According to the methods of the Johns Hopkins Biocalorimetry Center, See, for example, Ramsay et al. Biochemistry (1990) 29:8677-8693; Schon et al. Biochemistry (1989) 28:5019-5024 (1990) 29: 781-788.
# An initial scan of rhGh was performed at 10 mg/mL in the absence of GuHCl (0.33 mM assuming 20,000 molecular weight). Subsequently, the concentration of rhGh was lowered to 5 mg/mL (0.17 mM) in 50 mM phosphate buffer, pH 7.5 containing varying concentrations of GuHCl. Each subsequent thermogram was corrected by background subtraction of a 0.5 M guanidine-phosphate buffer solution. The thermograms were corrected by subtraction of a 0.5M NaCl-phosphate buffer blank. Scans were performed according to the procedure of Example 9.
# [3] = In vivo delivery of rhGH in rats, sublingual, intranasal, oral; settings: rat, no carrier, drug dose 6 mg/kg
# Protocol: Dosing compositions were prepared by mixing the modified amino acids and recombinant human growth hormone (rhGH) as listed in Table 16 below in a phosphate buffer solution at a pH of about 7-8.
# Rats were administered the dosing composition by sublingual or intranasal administration. Delivery was evaluated by using an ELISA assay for rhGH from Medix Biotech, Inc. For intracolonic administration, a sample was prepared and dosed to fasted rats at 25 mg/kg of carrier in a buffered solution containing propylene glycol (0-50%) and 1 mg/kg rhGH.
# rhGH ([…]) was administered by oral gavage to a rat, and delivery was evaluated according to the procedure of Example 41A.
# [4] = In vivo rhGH in rats, subcutaneous, with delivery agents; set-up: species or system Sprague-Dawley rats; settings: rat; no delivery agent (Example 43A)
# Protocol: (§2) The delivery agents were reconstituted with distilled water and adjusted to pH 7.2-8.0 with either aqueous hydrochloric acid or aqueous sodium hydroxide. A stock solution of rhGH was prepared by mixing rhGH, D-mannitol and glycine and dissolving this mixture in 2% glycerol/water. The stock solution was then added to the delivery agent solution. Several delivery agent to active agent ratios were studied.
# Male Sprague-Dawley rats weighing 200-250 g were fasted for 24 hours and administered ketamine (44 mg/kg) and chlorpromazine (1.5 mg/kg) 15 minutes prior to dosing. The rats were administered one of the dosing solutions described above by subcutaneous injection, intranasal instillation, or sublingual instillation. Blood samples were collected serially from the tail artery for serum calcium concentration determination or serum rhGH concentrations. The dose of rhGH administered in these experiments was 0.1 mg/kg.
# Serum rhGH concentrations were quantified by an rhGH enzyme immunoassay test kit.
# rhGH (1 mg/kg) was administered by oral gavage to a rat, and delivery was evaluated according to the procedure of Example 43.
# [5] = DSC of rhGh, effect of pH; assay type: physicochemical
# Protocol: as §1
# 5 mg/mL rhGh were dissolved in buffer (0.17 mM in 50 mM phosphate buffer, assuming a molecular weight of 20,000). The pH of the solution was adjusted to the desired value, and all curves were corrected by baseline subtraction.
# The effect of pH on structure was assessed by DSC according to the procedure of Example 9 where individual solutions were prepared in phosphate buffer ranging in pH value from 2.0 to 6.0.
# [6] = DSC of rhGh, effect of pH; assay type: physicochemical; settings: pH 7.5 (10 mg/mL)
# serum calcium = test: In vivo salmon calcitonin in rats, subcutaneous, with delivery agents; set-up: species or system Sprague-Dawley rats; settings: sCT 0.2 μg/kg, no delivery agent (Example 55A)
# Protocol: as §2, with “sCT” for “rhGH”, “by” for “by mixing rhGH, D-mannitol and glycine and”, “sCT” for “this mixture”, “citric acid (0.085N).” for “2% glycerol/water.”, “Several different” for “Several”
# Male Sprague-Dawley rats weighing 200-250 g were fasted for 24 hours and administered ketamine (44 mg/kg) and chlorpromazine (1.5 mg/kg) 15 minutes prior to dosing. The rats were administered one of the dosing solutions described above by subcutaneous injection. Blood samples were collected serially from the tail artery for serum calcium concentration.
# Serum calcium concentrations were quantified by the o-cresolphthalein complexone method (Sigma) using a UV/VIS spectrophotometer (Perkin Elmer).
# Salmon calcitonin was administered by oral gavage to rats, and delivery was evaluated according to the Procedure of Example 55.
substance,measurement,setting,value
rhGh: recombinant human growth hormone,"Tm (Cp, max)",[1]; 0.0 M NaCl,75.2 °C
same,ΔH°,[1]; 0.0 M NaCl,191.0 kcal/mol
same,"Tm (Cp, max)",[1]; 0.5 M NaCl,75.8 °C
same,ΔH°,[1]; 0.5 M NaCl,89.7 kcal/mol
same,ΔH°,[1]; 1.0 M NaCl,50.5 kcal/mol
same,"Tm (Cp, max)",[1]; 10.0 M NaCl,76.5 °C
same,"DOMAIN A Tm (Cp, max)",[2]; 0.5 M GuHCl,71.5 °C
same,"DOMAIN B Tm (Cp, max)",[2]; 0.5 M GuHCl,"not defined,"
same,ΔH°,[2]; 0.5 M GuHCl,48 kcal/mol
same,"DOMAIN A Tm (Cp, max)",[2]; 1.0 M GuHCl,70.9 °C
same,"DOMAIN B Tm (Cp, max)",[2]; 1.0 M GuHCl,absent
same,ΔH°,[2]; 1.0 M GuHCl,109 kcal/mol
same,"DOMAIN A Tm (Cp, max)",[2]; 1.5 M GuHCl,69.7 °C
same,"DOMAIN B Tm (Cp, max)",[2]; 1.5 M GuHCl,absent
same,ΔH°,[2]; 1.5 M GuHCl,12 kcal/mol
same,"DOMAIN A Tm (Cp, max)",[2]; 2.0 M GuHCl,70.0 °C
same,"DOMAIN B Tm (Cp, max)",[2]; 2.0 M GuHCl,absent
same,ΔH°,[2]; 2.0 M GuHCl,58 kcal/mol
same,"DOMAIN A Tm (Cp, max)",[2]; 2.5 M GuHCl,70.7 °C
same,"DOMAIN B Tm (Cp, max)",[2]; 2.5 M GuHCl,absent
same,ΔH°,[2]; 2.5 M GuHCl,99 kcal/mol
same,"DOMAIN A Tm (Cp, max)","[2]; no GuHCl, rhGh 10 mg/mL",72.6 °C
same,"DOMAIN B Tm (Cp, max)","[2]; no GuHCl, rhGh 10 mg/mL",74.3 °C
same,ΔH°,"[2]; no GuHCl, rhGh 10 mg/mL",632 kcal/mol
same,Mean Peak Serum Levels of rhGH,[3],<10 ± 10 ng/mL
same,Peak Serum [rhGH],[4],4 ± 2 ng/mL
same,"Tm (Cp, max)",[5]; pH 2.0,no transition observed
same,ΔH°,[5]; pH 2.0,no transition observed
same,"Tm (Cp, max)",[5]; pH 3.0,no transition observed
same,ΔH°,[5]; pH 3.0,no transition observed
same,"Tm (Cp, max)",[5]; pH 3.5,no transition observed
same,ΔH°,[5]; pH 3.5,no transition observed
same,"Tm (Cp, max)",[5]; pH 4.0,≈73.0 °C
same,ΔH°,[5]; pH 4.0,broad transition
same,"Tm (Cp, max)",[5]; pH 5.0,75.0 °C
same,ΔH°,[5]; pH 5.0,161 kcal/mol
same,"Tm (Cp, max)",[5]; pH 6.0,75.2 °C
same,ΔH°,[5]; pH 6.0,191 kcal/mol
same,"Tm (Cp, max), transition a)",[6],a) 73 °C
same,"Tm (Cp, max), transition b)",[6],b) 75 °C
same,"ΔH°, (a) + (b)",[6],(a) + (b) = 632 kcal/mol
sCT: Salmon Calcitonin (CSNLSTCVLGKLSQELHKLQTYPRTNTGSGTP-NH2; disulfide 1-7; ends not checked),Percent Decrease in Serum Calcium,serum calcium,17 ± 2%
